Consider 1 molecule from US20240173352A1 (A2 BIOTHERAPEUTICS, published 2024).

This assay addresses HLA-A*02 (on target cells) (human). The assay is described as follows: cell-based or functional assay.

B1: HA-1(H) peptide (peptide)
peptide: VLHDDLLEA
Consider B1, for which the “EC50 right shift of the NY-ESO-1 TCR by 50 uM HA-1(H) peptide” value was around 30 fold.
